This is an account of results in patent publication US20160287687A1 (IMMATICS BIOTECHNOLOGIES, published 2016).

First the molecules themselves.
B1: YVLTQPPSV (SEQ ID NO: 68) (peptide)
peptide: YVLTQPPSV
notes: source genes IGLV3-21, IGLV2-14, IGLJ3, IGLC1, IGLC2

In this experiment the target is T1, HLA-A*02:01 (human).
T1 construct: MHC monomers first loaded with a UV-sensitive peptide (not identified) that is cleaved by UV light and exchanged for the test peptide; captured on streptavidin plates, detected with anti-β2m; also called peptide-receptive MHC molecules; MHC class I
Nature of the experiment: UV-ligand exchange + anti-b2m ELISA; peptide exchange yield grade (+ >=10%, ++ >=20%, +++ >=50, ++++ >=75%). An excerpt:
Candidate peptides for T cell based therapies according to the present invention were further tested for their MHC binding capacity (affinity). The individual peptide-MHC complexes were produced by UV-ligand exchange, where a UV-sensitive peptide is cleaved upon UV-irradiation, and exchanged with the peptide of interest as analyzed. Only peptide candidates that can effectively bind and stabilize the peptide-receptive MHC molecules prevent dissociation of the MHC complexes. To determine the yield of the exchange reaction, an ELISA was performed based on the detection of the light chain (β2m) of stabilized MHC complexes. The assay was performed as generally described in Rodenko et al. (Rodenko et al., 2006).
96 well MAXISorp plates (NUNC) were coated over night with 2 ug/ml streptavidin in PBS at room temperature, washed 4× and blocked for 1h at 37° C. in 2% BSA containing blocking buffer. Refolded HLA-A*02:01/MLA-001 monomers served as standards, covering the range of 15-500 ng/ml. Peptide-MHC monomers of the UV-exchange reaction were diluted 100 fold in blocking buffer. Samples were incubated for 1 h at 37° C., washed four times, incubated with 2 ug/ml HRP conjugated anti-β2m for 1h at 37° C., washed again and detected with TMB solution that is stopped with […]. Absorption was measured at 450 nm. Candidate peptides that show a high exchange yield (preferably higher than 50%, most preferred higher than 75%) are generally preferred for a generation and production of antibodies or fragments thereof, and/or T cell receptors or fragments thereof, as they show sufficient avidity to the MHC molecules and prevent dissociation of the MHC complexes.
In the case of TLLKTIIKV (source gene CC2D2A) [TLLKTIIKV (SEQ ID NO: 66)], the peptide exchange yield fell in the range of 20 to 50%. With YSLEKVFGI (source gene MAGED2) [YSLEKVFGI (SEQ ID NO: 72)], the peptide exchange yield was in the range of 20 to 50%. As for FLVDFEQSHL (source gene CYP2J2) [FLVDFEQSHL (SEQ ID NO: 58)], the peptide exchange yield was ≥ 75%. Consider LLAASVALA (source gene NPTX2) [LLAASVALA (SEQ ID NO: 64)], for which the peptide exchange yield is 20 to 50%. TLAELHISL (source gene NLRC5) [TLAELHISL (SEQ ID NO: 88)]: the peptide exchange yield lay within 20 to 50%.

As to VLFELSKTV (source gene ATP11A) [VLFELSKTV (SEQ ID NO: 6)], the peptide exchange yield was 50 to 75%. For the molecule SLIKHKIML (source gene ATP6V1A) [SLIKHKIML (SEQ ID NO: 77)], the peptide exchange yield was 20 to 50%. Then ILLQKPDSV (source gene RGS5) [ILLQKPDSV (SEQ ID NO: 9)], with 20 to 50%; and KLTDVGIATL (source gene ALPK2) [KLTDVGIATL (SEQ ID NO: 95)], with 20 to 50%; and SLLLAVTEV (source gene JAG2) [SLLLAVTEV (SEQ ID NO: 89)], with 20 to 50%. For the molecule GLFHKQVTV (source gene PDZD2) [GLFHKQVTV (SEQ ID NO: 74)], the peptide exchange yield fell in the range of 50 to 75%. For HIYDKAFITV (source gene FLT1) [HIYDKAFITV (SEQ ID NO: 101)], the peptide exchange yield was 20 to 50%. Then ALDGHLYAV (source gene KBTBD11) [ALDGHLYAV (SEQ ID NO: 71)], with 50 to 75%; and YLMDEGAHL (source gene UGDH) [YLMDEGAHL (SEQ ID NO: 84)], with 20 to 50%. Then SLQKEILYL (source gene ATG2B) [SLQKEILYL (SEQ ID NO: 57)], with 20 to 50%; and IIYGGSVTGA (source genes TPI1, TPI1P1) [IIYGGSVTGA (SEQ ID NO: 65)], with 20 to 50%. For TLISELVQA (source gene CUL7) [TLISELVQA (SEQ ID NO: 97)], the peptide exchange yield was 20 to 50%. In the case of FVMSEIRTV (source gene ZNF618) [FVMSEIRTV (SEQ ID NO: 85)], the peptide exchange yield lay in the range of 50 to 75%. Then FTLEKNFVI (source gene COL6A2) [FTLEKNFVI (SEQ ID NO: 90)], with 20 to 50%; and KIPPVSPSI (source gene ARRDC3) [KIPPVSPSI (SEQ ID NO: 98)], with 20 to 50%; and GLLQGKLALL (source gene NQO2) [GLLQGKLALL (SEQ ID NO: 86)], with 20 to 50%. For the molecule FLFRDILEL (source gene DROSHA) [FLFRDILEL (SEQ ID NO: 92)], the peptide exchange yield is 50 to 75%.

On to ILWKDIEYV (source gene SYT9) [ILWKDIEYV (SEQ ID NO: 60)], for which the peptide exchange yield was 50 to 75%. As for GLIEDHFDVTV (source gene ERAP1) [GLIEDHFDVTV (SEQ ID NO: 63)], the figure is 20 to 50%; as for GLAPHLEQI (source gene IPO4) [GLAPHLEQI (SEQ ID NO: 99)], 20 to 50%. As for ILHHKVYDL (source gene CYB5A) [ILHHKVYDL (SEQ ID NO: 94)], the peptide exchange yield fell in the range of 20 to 50%. Turning to VLAGPAFLVQL (source gene SLC47A1) [VLAGPAFLVQL (SEQ ID NO: 62)], the peptide exchange yield was 50 to 75%. In the case of VLADDHLIEV (source genes PDZK1P2, PDZK1, PDZK1P1) [VLADDHLIEV (SEQ ID NO: 76)], the peptide exchange yield was 20 to 50%.

Take MLLSSLVSL (source gene VKORC1) [MLLSSLVSL (SEQ ID NO: 91)]: the peptide exchange yield lay within 20 to 50%. Consider KLNVAPLAV (source genes MZT2A, MZT2B) [KLNVAPLAV (SEQ ID NO: 100)], for which the peptide exchange yield was 20 to 50%. Turning to FLIKSINLV (source gene KBTBD3) [FLIKSINLV (SEQ ID NO: 75)], the peptide exchange yield is 50 to 75%. As for LLFDVHTTL (source gene C5orf42) [LLFDVHTTL (SEQ ID NO: 102)], the peptide exchange yield is 50 to 75%.

For the molecule IQWSIVPEV (source gene GRAMD4) [IQWSIVPEV (SEQ ID NO: 83)], the peptide exchange yield lay within 50 to 75%. With YLALILPVL (source gene SLC16A4) [YLALILPVL (SEQ ID NO: 55)], the peptide exchange yield fell in the range of 20 to 50%. For B1, the peptide exchange yield fell in the range of 20 to 50%.

SLLQATDFMSL (source gene THY1) [SLLQATDFMSL (SEQ ID NO: 82)]: the peptide exchange yield is 50 to 75%. As to ILADLLPSL (source gene DHRS7B) [ILADLLPSL (SEQ ID NO: 69)], the peptide exchange yield was in the range of 20 to 50%.

For the molecule SLKNNVVSV (source gene TGFBI) [SLKNNVVSV (SEQ ID NO: 59)], the peptide exchange yield was 50 to 75%. On to TLAETLVNL (source gene ANKRD52) [TLAETLVNL (SEQ ID NO: 96)], for which the peptide exchange yield fell in the range of 50 to 75%. As to GLASFKSFL (source gene RGS5) [GLASFKSFL (SEQ ID NO: 8)], the peptide exchange yield lay in the range of 20 to 50%. For LLDVLAPLV (source gene COL18A1) [LLDVLAPLV (SEQ ID NO: 67)], the peptide exchange yield fell in the range of 20 to 50%. SLLPALPKL (source gene LRP2) [SLLPALPKL (SEQ ID NO: 81)]: the peptide exchange yield fell in the range of 20 to 50%.

With ILMDFSNSM (source gene ITGB4) [ILMDFSNSM (SEQ ID NO: 56)], the peptide exchange yield is 50 to 75%. Consider GVMAGDIYSV (source gene PLIN2) [GVMAGDIYSV (SEQ ID NO: 93)], for which the peptide exchange yield is ≥ 75%. Consider FLLSLIDRL (source gene EGLN3) [FLLSLIDRL (SEQ ID NO: 7)], for which the peptide exchange yield lay in the range of 50 to 75%. On to GLDGIPFTV (source gene TRIP6) [GLDGIPFTV (SEQ ID NO: 73)], for which the peptide exchange yield lay in the range of 50 to 75%. In the case of ALADIVWRA (source gene FAM188B) [ALADIVWRA (SEQ ID NO: 79)], the peptide exchange yield is 50 to 75%. Consider SLMGILLRI (source gene CARD8) [SLMGILLRI (SEQ ID NO: 61)], for which the peptide exchange yield was in the range of 20 to 50%.

As for ALLDTVVQA (source genes CACNA1I, CACNA1H) [ALLDTVVQA (SEQ ID NO: 78)], the peptide exchange yield fell in the range of 20 to 50%. Consider KLASMLETL (source gene PRKCDBP) [KLASMLETL (SEQ ID NO: 80)], for which the peptide exchange yield is 50 to 75%.
